Source: publication PMC7382501

Target: FasRLVL triple mutant (Leu106, Val163 and Leu185 to phenylalanine) (Mycobacterium tuberculosis) (UniProt O05858)
Assay: SEC

Substance: FasRLVL triple mutant (Leu106, Val163 and Leu185 to phenylalanine) (from UniProt O05858 1-228) (natural protein)
- percent eluting as a monomer: < 50%
- percent eluting as the wild-type protein (dimer): > 50%
- stoichiometry N: 2
